Data from patent US20250215467A1, “L-THREONINE TRANSALDOLASES AND USES THEREOF” (University of Delaware, priority 2022, published 2025).

How the values were obtained:
Assay type in all cases: biochemical
[1] = TTA-ADH coupled assay at different L-Thr concentrations (apparent L-Thr KM and kcat)
Protocol: (§1) High-throughput screening of purified TTAs was performed with a TTA-ADH coupled assay using purified TTA and commercially available alcohol dehydrogenase from S. cerevisiae purchased from MilliporeSigma. Aldehyde stocks were prepared in 50-100 mM solutions in DMSO or acetonitrile. Reaction mixtures were prepared in a 96-well plate with 100 μL of 100 mM phosphate buffer pH 7.5, 0.5 mM NADH, 0.4 mM PLP, 15 mM MgCl2, and 100 mM L-Thr with the addition of 0.25 mM to 1 mM aldehyde depending on the background absorbance at 340 nm (Table 4), 10 U ScADH, and 0.25 μM purified TTA unless otherwise specified. Reactions were initiated with the addition of enzyme. […] The following controls were included for every assay: reaction mixture without aldehyde, without TTA, and without enzyme (TTA or ADH). Rates were calculated by identifying the linear region at the beginning of the kinetic run and converting the depletion in absorbance to the depletion of mM NADH using an NADH standard curve.
We next sought to determine the affinity of these enzymes for L-Thr, which we obtained by performing the TTA-ADH coupled assay at different L-Thr concentrations (FIG. 16b). […] Two differences between our assays were the substrate, phenylacetaldehyde (14) instead of 4-nitrophenylacetylaldehyde (15), and the assay format, ADH coupling rather than a discontinuous HPLC assay. Because a live cellular environment would also contain alcohol dehydrogenases for reduction of acetaldehyde, it is possible that the KM values that we are measuring using the TTA-ADH coupled assay may be more realistic for our envisioned applications.

[2] = In vitro CAR-TTA coupled assay with HPLC analysis; conditions: CAR plus 2 μM PbTTA, 100 mM L-Thr, 20 h
Protocol: In vitro CAR activity assays were performed as previously reported (Gopal et al. biorxiv, 2022) using 2 mM NADPH and 2 mM ATP, 20 mM MgCl2, and 0.75 μM CAR and E. coli pyrophosphatase. For in vitro coupling with the CAR and TTA, the same in vitro CAR assay was performed with the addition of 2 μM TTA, 0.4 mM PLP, and 100 mM L-Thr; however, rather than monitoring the reaction with the plate reader, the plate was left shaking at 1000 RPM with an orbital radius of 1.25 mm at 30° C. overnight. The reaction was then quenched after 20 h with 100 μL of 3:1 methanol:2 M HCl. The supernatant was then separated from the protein precipitate using centrifugation and analyzed via HPLC.
Metabolites of interest were quantified via high-performance liquid chromatography (HPLC) using an Agilent 1260 Infinity model equipped with a Zorbax Eclipse Plus-C18 column. To quantify aldehyde and β-OH-nsAAs, an initial mobile phase of solvent A/B=95/5 was used (solvent A, water+0.1% TFA; solvent B, acetonitrile+0.1% TFA) and maintained for 5 min. A gradient elution was performed (A/B) as follows: gradient from 95/5 to 50/50 for 5-12 min, gradient from 50/50 to 0/100 for 12-13 min, and gradient from 0/100 to 95/5 for 13-14 min. A flow rate of 1 mL min-1 was maintained, and absorption was monitored at 210, 250 and 280 nm. […]

[3] = TTA-ADH coupled assay, substrate scope of TTAs on aromatic aldehydes
Protocol: as §1
We specifically selected substrates with ring substituents with different electron withdrawing properties (1, 3, 6, 7, 8), substituent size (12), and aldehyde chain length (15) to compare the activity of the putative TTAs to ObiH. We were also encouraged by the activity of PbTTA and KaTTA on vanillin and protocatechualdehyde which are substrates that would form products like commercially available therapeutic, Droxidopa (FIG. 18).
To explore the possibility that DbTTA and TmTTA are TTAs active on other related aldehydes, we sought to examine their activity with L-Thr and aldehyde substrates with different ring substituent position (2), bulkier, hydrophobic chemistry (10), and aldehyde chain length (14) using the TTA-ADH coupled assay.

[4] = In vitro assay over 20 h with HPLC analysis (amino acid substrate specificity, diastereomeric excess); conditions: 3 as aldehyde substrate
Protocol: Metabolites of interest were quantified via high-performance liquid chromatography (HPLC) using an Agilent 1260 Infinity model equipped with a Zorbax Eclipse Plus-C18 column. To quantify aldehyde and β-OH-nsAAs, an initial mobile phase of solvent A/B=95/5 was used (solvent A, water+0.1% TFA; solvent B, acetonitrile+0.1% TFA) and maintained for 5 min. A gradient elution was performed (A/B) as follows: gradient from 95/5 to 50/50 for 5-12 min, gradient from 50/50 to 0/100 for 12-13 min, and gradient from 0/100 to 95/5 for 13-14 min. A flow rate of 1 mL min-1 was maintained, and absorption was monitored at 210, 250 and 280 nm.
We performed an in vitro assay over 20 h using 3 as the aldehyde substrate and either L-Thr, Glycine (Gly), or L-Serine (L-Ser) as the candidate amino acid. Since the TTA-ADH coupled assay is specific to L-Thr, we analyzed TTA activity via HPLC with a chemically synthesized β-OH-nsAA standard for the assumed product from 3.

B1: PbTTA: L-threonine transaldolase, SEQ ID NO: 16, Parachlamydiales bacterium, MBN2478762.1 (protein, listed as Parachlamydiales bacterium)
chain: METSLKDFETILHLINKEEIDSNDTIHMTANENIMSKLSKHYLKSTLSYRYHVGMFDDQKNLTVSRSCLIKNSLMLRCLSPIFLLEQQAREYVKKMFFAEYADFRPLSGMHTVFCILSTLTKPNDRVYVFTTESVGHAATVSLLKSLGRKVSFIPFCEKKLDIDLEKLSKQILIEKPNAILFDFGTPFYPLPIREIREIVGNDVKMIYDASHVLGLIAGGQFQNPLLEGCDVLIGNTHKTFPGPQKGMILYKNKSLGKEIATEIFKSAISAQHTHHAIALYVTIIEMYIHGKEYANQIIKNNHALSQALINEGFKIFKRKNQFSLSHMIAITGDFPIDHHVACADLHNSNISTNSRILYDFPAVRIGVQEVTRKGMKEKDMVQLAKFFKEIILDRKNISSKIKEFNNKFNSIEYSLDEIYEKLF
[1]; apparent, phenylacetaldehyde (14) as aldehyde, ADH coupling, non-linear regression
  Km: 10.9 mM
[1]; phenylacetaldehyde as the aldehyde substrate
  L-Thr kcat compared with ObiH: higher measured L-Thr kcat values than ObiH
[2]
  β-OH-nsAA production from 4-azido-benzoic acid, in vitro CAR-TTA coupling: successfully produced a β-OH-nsAA product
[3]; TTA-ADH coupled assay
  activity on vanillin and protocatechualdehyde: activity
[3]; substrates 1, 3, 6, 7, 8, 12, 15
  activity on a set of aromatic aldehyde substrates (substrate scope): high activity on a diverse array of substrates
[4]
  β-OH-nsAA formation using L-Ser or Gly: no β-OH-nsAA formation
